This is an account of results in patent US20200230168, “NUCLEIC ACID OLIGOMERS AND USES THEREFOR” (Queensland University of Technology, published 2020).

Data set [1] concerns the target hSSB2 (Homo sapiens, UniProt Q96AH0 Q96AH0:1-204). Kind of data set: EMSA; Tris pH 7.5, 100 mM KCl, 1 mM EDTA, 37C; single EMSA. The note with it: label: FAM. On the procedure: FIG. 16 is a graphic representation of a single EMSA showing increasing concentrations of hSSB2 protein vs. 5 nM of FAM-labeled LSA_In3E3 sequence or negative control sequence (Neg_C) in phosphorothioate chemistry. Graphs represent the fraction of oligo bound to the protein. Purified protein was incubated with 5 nM of labeled oligo for 15 min at 37° C. in a buffer consisting of 10 mM Tris-HCl (pH7.5), 100 mM KCl, 0.01% IGEPAL, 1 mM EDTA and 50 ng/μL BSA.
(§1) FAM-labeled non-targeting PS compound, LSA_In3E3, PD compounds, DNA_In3E3 and RNA_In3E3, and a negative control oligomer compound, NEGC, were incubated separately with purified mouse SSB1 (mSSB1), hSSB1 and human SSB2 (hSSB2) proteins.
For orientation: In EMSA bound probe runs differently from free probe, usually more slowly.

The target of data set [2] is T1, mSSB1 (Mus musculus, UniProt Q8R2Y9 Q8R2Y9:1-212). Kind of data set: EMSA; 1 mM EDTA, 37C. The note with it: label: FAM. How it is done: as §1
T1 sequence (Q8R2Y9 whole entry, one chain of several): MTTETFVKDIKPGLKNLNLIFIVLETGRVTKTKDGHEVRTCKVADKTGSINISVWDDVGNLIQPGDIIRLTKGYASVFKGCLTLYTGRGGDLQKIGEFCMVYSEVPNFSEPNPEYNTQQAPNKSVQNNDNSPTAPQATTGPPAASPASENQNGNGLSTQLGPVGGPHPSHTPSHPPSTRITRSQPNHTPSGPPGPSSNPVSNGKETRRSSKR
In data set [3] the target is T2, hSSB1 (Homo sapiens, UniProt Q9BQ15 Q9BQ15:1-211). The data set is described as follows: EMSA; 10 mM Tris, 1 mM EDTA, 37C; Table 7 gives 3 nM. The note with it: label: FAM. On the procedure: (§2) FIG. 15 is a graphic representation of hSSB1 EMSAs showing increasing concentrations of hSSB1 protein vs. 5 nM of FAM-labeled LSA_In3E3 sequence in either phosphorothioate (PS) or phosphodiester (PD) chemistry, or negative control sequence (Neg_C) in phosphorothioate chemistry. Graphs represent quantification of at least triplicate experiments, expressed as the fraction of oligomer compound bound to the protein. Purified protein was incubated with 5 nM of labeled oligomer compound for 15 min at 37° C. in a buffer consisting of 10 mM Tris-HCl (pH7.5), 100 mM KCl, 0.01% IGEPAL, 1 mM EDTA and 50 ng/μL BSA.
T2 sequence (Q9BQ15 whole entry, one chain of several): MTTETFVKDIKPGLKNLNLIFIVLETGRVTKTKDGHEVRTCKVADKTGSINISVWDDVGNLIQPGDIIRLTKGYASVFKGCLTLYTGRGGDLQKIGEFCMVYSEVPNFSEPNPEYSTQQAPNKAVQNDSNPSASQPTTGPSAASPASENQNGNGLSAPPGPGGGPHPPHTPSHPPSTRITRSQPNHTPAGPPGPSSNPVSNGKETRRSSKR
as §1

The target in data set [4] is THOC4 (ALYREF) (UniProt Q86V81 Q86V81:2-257). The data set is described as follows: EMSA; 10 mM Tris pH 8.0, 100 mM NaCl, 1 mM EDTA, 37C.
For data set [5], the target named is T2, hSSB1. Kind of data set: SPR; LSA_In3E3 = 1. On the technique in general: In SPR one partner is held on a chip, and binding of the other changes the refractive index at the surface.
Data set [6] deals with T1, mSSB1. The data set is described as follows: EMSA. The note with it: label: FAM. How it is done: as §1
For data set [7], the target named is T2, hSSB1. Kind of data set: EMSA; 10 mM Tris, 1 mM EDTA, 37C; Table 7 gives 9 nM. The following applies: label: FAM. On the procedure: as §2, §1
The target of data set [8] is T2, hSSB1. Kind of data set: EMSA. The note with it: label: FAM. On the procedure: as §2, §1

Chain of hSSB2 (Q96AH0 whole entry, one chain of several): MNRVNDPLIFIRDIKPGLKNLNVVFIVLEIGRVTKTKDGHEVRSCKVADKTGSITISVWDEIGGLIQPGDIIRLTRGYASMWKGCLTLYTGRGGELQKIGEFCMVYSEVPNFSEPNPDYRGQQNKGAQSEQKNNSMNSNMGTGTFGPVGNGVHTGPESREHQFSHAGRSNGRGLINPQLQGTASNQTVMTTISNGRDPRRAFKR

B1: LSA_In3E3 (ssRNA)
RNA: CCAGUGAGCCGGACUUGCCU
modifications: 2'-OMe all, PS all
Take B1: the binding result in data set [1] was “binds”. For the same molecule, the Kd – broadly, the free concentration of one partner at which half of the binding sites on the other are occupied at equilibrium, for simple one-to-one binding – in data set [2] came to 4.13 nM; in data set [3], 3.29 nM; in data set [4], 81 nM.

B2: ASO_E3E4 (ssRNA)
RNA: CUGAAGCGUACCCUUUGGUG
modifications: 2'-OMe all, PS all
In turn, B2 showed a binding signal in data set [5] of 0.75 normalized Rmax. Further, binding in data set [4] was characterised by a dissociation constant (Kd) of 70 nM.

B3: LSA_In3E3_CT5 (ssRNA)
RNA: CGCGUCACUCGCACUCGCCU
modifications: 2'-OMe all, PS all
B3: in data set [5], the binding signal is 0.46 normalized Rmax. This molecule displayed a Kd in data set [4] of 125 nM.

B4: Neg_C (ssRNA)
RNA: CUCAUUCCUACCGACACCCC
modifications: 2'-OMe all, PS all
For the molecule B4, the Kd in data set [6] was 15.4 nM; in data set [7] it was 10 nM; in data set [4], 150 nM.

B5: cdca3_L_ATG-3 (ssRNA)
RNA: GAGAACCGACUCGGGUAGAG
modifications: 2'-OMe all, PS all
In data set [5], B5 registered a binding signal of 1.09 normalized Rmax. Besides, in data set [4], the Kd is 58 nM.

B6: Open_A_1 (ssRNA)
RNA: GUGCAUGGAAUCACGGAGUG
modifications: 2'-OMe all, PS all
In data set [4], B6 registered a dissociation constant Kd of 52 nM. In other words, the double-digit nanomolar range.

B7: cdca3_A_ATG-3 (ssRNA)
RNA: CUCUUGGCUGAGCCCAUCUC
modifications: 2'-OMe all, PS all
B7 yielded a binding signal in data set [5] of 1.3 normalized Rmax. In data set [4], this molecule yielded a Kd of 134 nM.

B8: RNA_In3E3 (ssRNA)
RNA: CCAGUGAGCCGGACUUGCCU
modifications: phosphodiester, unmodified ribose
On to B8, for which the Kd in data set [8] stood at 137 nM. In other words, the sub-micromolar range.

B9: DNA_In3E3 (ssDNA)
DNA: CCAGUGAGCCGGACUUGCCU
modifications: deoxyuridine in place of T, phosphodiester
B9: the dissociation constant (Kd) amounted to 13.1 nM in data set [6] and 13.5 nM in data set [8].

B10: Open_L_1 (ssRNA)
RNA: CACGUACCUUAGUGCCUCAC
modifications: 2'-OMe all, PS all
The molecule B10 had a binding signal in data set [5] of 0.8 normalized Rmax. Also, the Kd in data set [4] was 104 nM.
